Assay results published in paper PMC6030132, “Tailoring recombinant lipases: keeping the His-tag favors esterification reactions, removing it favors hydrolysis reactions” (Scientific Reports, 2018).

Tests used:
[1] = system: T1, CCCCCCCCCC(=O)Oc1ccc([N+](=O)[O-])cc1; assay: purified protein; assay type: biochemical, uncultured bacterium; conditions: apparent constant, free enzyme, 50 mM Tris-HCl pH 7.5, 1 mM CaCl2, 0.6% Triton X-100, 4% isopropanol, 1% acetonitrile, 25 °C, 95% confidence interval in parentheses
T1 construct: full-length lipC12 product (293 residues) from pTEV5lipC12, E. coli BL21(DE3)

[2] = system: T2, CCCCCCCCCC(=O)Oc1ccc([N+](=O)[O-])cc1; assay: purified protein; assay type: biochemical, uncultured bacterium; conditions: apparent constant, free enzyme, 50 mM Tris-HCl pH 7.5, 1 mM CaCl2, 0.6% Triton X-100, 4% isopropanol, 1% acetonitrile, 25 °C, 95% confidence interval in parentheses
T2 construct: full-length lipC12 product (293 residues) from pTEV5lipC12, E. coli BL21(DE3); His-tag cut off with TEV protease, GASH left at N-terminus

For HisTEVS-LipC12 (uncultured bacterium), the Km [1] was 1.77 (1.56–2.02) mM, the kcat [1] was 2.53 s⁻¹ and the kcat/Km [1] was 1430 M⁻¹ s⁻¹.

In the case of cLipC12 (uncultured bacterium), the Km [2] is reported as 1.33 (1.17–1.51) mM, the kcat [2] is reported as 2.52 s⁻¹ and the kcat/Km [2] is reported as 1900 M⁻¹ s⁻¹.
